Experimental data as given in the RNAGym collection of RNA variant scans (doi:10.1093/molbev/msab373).

B1: Azoarcus group I ribozyme (parent)
chain: GUGCCUUGCGCCGGGAAACCACGCAAGGGAUGGUGUCAAAUUCGGCGAAACCUAAGCGCCCGCCCGGGCGUAUGGCAACGCCGAGCCAAGCUUCGGCGCCUGCGCCGAUGAAGGUGUAGAGACUAGACGGCACCCACCUAAGGCAAACGCUAUGGUGAAGGCAUAGUCCAGGGAGUGGCGAAAGUCACACAAACCGG

Variants of: B1
Assay: reverse-splicing fitness (ratio to wild type); higher = more active; in vitro selection; Mg2+ level not given
Method in brief: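 An in vitro group I ribozyme library with randomized positions was T7-transcribed and gel-purified. In triplicate, 10 pmol RNA in EPPS pH 7.5 was reacted with 50 pmoles of a 30-nt RNA substrate for 1 h at 37 °C across several added MgCl2 levels (1–48 mM), then stopped with EDTA. Products were reverse transcribed from a substrate-complementary primer, PCR-amplified and sequenced (HiSeq 4000). Fitness is a variant's read proportion after selection over that before, normalised to wild type.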

Row | Variant | reverse-splicing fitness
1 | GUGCCUUGCGCCGGGAAACCACGCAAGGGAUGGUGUCAAAUUCGGCGAAACCUAAGCGCCCGCCCGGGCGUAUGGCAACGCGGAGCCAAGCUUCGGCGCCUGCGCCGAUGAAGGUGUAGAGACUAGACGGCACCCACCUAAGGCUAACGGUAUGGUGAAGGCAUAGUCGAGGGAGUGGCGAAAGUCACACAAACCGG [C82G A145U C150G C169G] | 0.00774
2 | GUGCCUUGCGCCGGGAAACCACGCAAGGGAUGGUGUCAAAUUCGGCGAAACCUAAGCGCCCGCCCGGGCGUAUGGCAACGCGGAGCCAAGCUUCGGCGCCUGCGCCGAUGAAGGUGUAGAGACUAGACGGCACCCACCUAAGGCUAACGGUAUGGUGAAGGCAUAGUCGAGGGAGAGGCGAAAGUCACACAAACCGG [C82G A145U C150G C169G U176A] | 0.00882
3 | GUGCCUUGCGCCGGGAAACCACGCAAGGGAUGGUGUCAAAUUCGGCGAAACCUAAGCGCCCGCCCGGGCGUAUGGCAACGCGGAGCCAAGCUUCGGCGCCUGCGCCGAUGAAGGUGUAGAGACUAGACGGCACCCACCUAAGGCUAACGGUAUGGUGAAGGCAUAGUCGAGGGAGCGGCGAAAGUCACACAAACCGG [C82G A145U C150G C169G U176C] | 0.00645
4 | GUGCCUUGCGCCGGGAAACCACGCAAGGGAUGGUGUCAAAUUCGGCGAAACCUAAGCGCCCGCCCGGGCGUAUGGCAACGCGGAGCCAAGCUUCGGCGCCUGCGCCGAUGAAGGUGUAGAGACUAGACGGCACCCACCUAAGGCUAACGGUAUGGUGAAGGCAUAGUCGAGGGAGGGGCGAAAGUCACACAAACCGG [C82G A145U C150G C169G U176G] | 0.00508
5 | GUGCCUUGCGCCGGGAAACCACGCAAGGGAUGGUGUCAAAUUCGGCGAAACCUAAGCGCCCGCCCGGGCGUAUGGCAACGCGGAGCCAAGCUUCGGCGCCUGCGCCGAUGAAGGUGUAGAGACUAGACGGCACCCACCUAAGGCUAACGGUAUGGUGAAGGCAUAGUCUAGGGAGUGGCGAAAGUCACACAAACCGG [C82G A145U C150G C169U] | 0.0092
6 | GUGCCUUGCGCCGGGAAACCACGCAAGGGAUGGUGUCAAAUUCGGCGAAACCUAAGCGCCCGCCCGGGCGUAUGGCAACGCGGAGCCAAGCUUCGGCGCCUGCGCCGAUGAAGGUGUAGAGACUAGACGGCACCCACCUAAGGCUAACGGUAUGGUGAAGGCAUAGUCUAGGGAGAGGCGAAAGUCACACAAACCGG [C82G A145U C150G C169U U176A] | 0.00876
7 | GUGCCUUGCGCCGGGAAACCACGCAAGGGAUGGUGUCAAAUUCGGCGAAACCUAAGCGCCCGCCCGGGCGUAUGGCAACGCGGAGCCAAGCUUCGGCGCCUGCGCCGAUGAAGGUGUAGAGACUAGACGGCACCCACCUAAGGCUAACGGUAUGGUGAAGGCAUAGUCUAGGGAGCGGCGAAAGUCACACAAACCGG [C82G A145U C150G C169U U176C] | 0.0119
8 | GUGCCUUGCGCCGGGAAACCACGCAAGGGAUGGUGUCAAAUUCGGCGAAACCUAAGCGCCCGCCCGGGCGUAUGGCAACGCGGAGCCAAGCUUCGGCGCCUGCGCCGAUGAAGGUGUAGAGACUAGACGGCACCCACCUAAGGCUAACGGUAUGGUGAAGGCAUAGUCUAGGGAGGGGCGAAAGUCACACAAACCGG [C82G A145U C150G C169U U176G] | 0.0049
9 | GUGCCUUGCGCCGGGAAACCACGCAAGGGAUGGUGUCAAAUUCGGCGAAACCUAAGCGCCCGCCCGGGCGUAUGGCAACGCGGAGCCAAGCUUCGGCGCCUGCGCCGAUGAAGGUGUAGAGACUAGACGGCACCCACCUAAGGCUAACGGUAUGGUGAAGGCAUAGUCCAGGGAGAGGCGAAAGUCACACAAACCGG [C82G A145U C150G U176A] | 0.0361
10 | GUGCCUUGCGCCGGGAAACCACGCAAGGGAUGGUGUCAAAUUCGGCGAAACCUAAGCGCCCGCCCGGGCGUAUGGCAACGCGGAGCCAAGCUUCGGCGCCUGCGCCGAUGAAGGUGUAGAGACUAGACGGCACCCACCUAAGGCUAACGGUAUGGUGAAGGCAUAGUCCAGGGAGCGGCGAAAGUCACACAAACCGG [C82G A145U C150G U176C] | 0.0376
11 | GUGCCUUGCGCCGGGAAACCACGCAAGGGAUGGUGUCAAAUUCGGCGAAACCUAAGCGCCCGCCCGGGCGUAUGGCAACGCGGAGCCAAGCUUCGGCGCCUGCGCCGAUGAAGGUGUAGAGACUAGACGGCACCCACCUAAGGCUAACGGUAUGGUGAAGGCAUAGUCCAGGGAGGGGCGAAAGUCACACAAACCGG [C82G A145U C150G U176G] | 0.0103
12 | GUGCCUUGCGCCGGGAAACCACGCAAGGGAUGGUGUCAAAUUCGGCGAAACCUAAGCGCCCGCCCGGGCGUAUGGCAACGCGGAGCCAAGCUUCGGCGCCUGCGCCGAUGAAGGUGUAGAGACUAGACGGCACCCACCUAAGGCUAACGUUAUGGUGAAGGCAUAGUCCAGGGAGUGGCGAAAGUCACACAAACCGG [C82G A145U C150U] | 0.321
13 | GUGCCUUGCGCCGGGAAACCACGCAAGGGAUGGUGUCAAAUUCGGCGAAACCUAAGCGCCCGCCCGGGCGUAUGGCAACGCGGAGCCAAGCUUCGGCGCCUGCGCCGAUGAAGGUGUAGAGACUAGACGGCACCCACCUAAGGCUAACGUUAUGGUGAAGGCAUAGUCAAGGGAGUGGCGAAAGUCACACAAACCGG [C82G A145U C150U C169A] | 0.00964
14 | GUGCCUUGCGCCGGGAAACCACGCAAGGGAUGGUGUCAAAUUCGGCGAAACCUAAGCGCCCGCCCGGGCGUAUGGCAACGCGGAGCCAAGCUUCGGCGCCUGCGCCGAUGAAGGUGUAGAGACUAGACGGCACCCACCUAAGGCUAACGUUAUGGUGAAGGCAUAGUCAAGGGAGAGGCGAAAGUCACACAAACCGG [C82G A145U C150U C169A U176A] | 0.0114
15 | GUGCCUUGCGCCGGGAAACCACGCAAGGGAUGGUGUCAAAUUCGGCGAAACCUAAGCGCCCGCCCGGGCGUAUGGCAACGCGGAGCCAAGCUUCGGCGCCUGCGCCGAUGAAGGUGUAGAGACUAGACGGCACCCACCUAAGGCUAACGUUAUGGUGAAGGCAUAGUCAAGGGAGCGGCGAAAGUCACACAAACCGG [C82G A145U C150U C169A U176C] | 0.00851
